The results in this text go back to publication PMC6927069.

The target in the experiment is latent myostatin. As to the kind of experiment: BLI. To be noted: second pH 7.4.

On to SRK-015, for which the “dissociation rate (koff), fold lower at pH 7.4 than at pH 5.0” value is given as “approximately 20-fold”.
